Key:
MS2 coat protein [1] = assay: apparent KD of MS2 coat protein, switch OFF state (with FMN for OFF switches, without FMN for ON switches); designed switch direction (-1 OFF switch, 1 ON switch): -1; higher = weaker reporter binding; details: FMN input: 0 or 200 uM; Eterna round: R93 (includes R88 designs)
In short: (§1)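 Designed RNA switches, transcribed on-chip from Illumina sequencing clusters, were titrated with SNAP-549-labelled MS2 coat protein from 0.7 or 1.5 nM to 3 µM in twofold steps. The solution was 100 mM Tris-HCl pH 7.5, 80 mM KCl, 4 mM MgCl2, with constant ligand or without it. Apparent KD is the median over each design's normalised cluster binding-curve fits.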

MS2 coat protein [2] = assay: apparent KD of MS2 coat protein, switch ON state; designed switch direction (-1 OFF switch, 1 ON switch): -1; higher = weaker reporter binding; details: FMN input: 0 or 200 uM; Eterna round: R93 (includes R88 designs)
In short: as §1

MS2 coat protein [3] = assay: apparent KD of MS2 coat protein; designed switch direction (-1 OFF switch, 1 ON switch): 1; higher = weaker reporter binding
In short: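 The reported apparent KD is a per-design median over clusters, from curve fits of normalised cluster fluorescence. Protein titrations used SNAP-549-labelled MS2 coat protein, doubled from 0.7 or 1.5 nM to 3 µM, in Tris-HCl pH 7.5 buffer with KCl, MgCl2, BSA, DTT, tRNA and Tween-20, with no input, 200 uM small-molecule ligand, or an oligonucleotide input. The RNA switches were transcribed on Illumina chips by stalled E. coli RNA polymerase.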

[4] = Eterna round: R95, input ligand: FMN 200 uM
[5] = Eterna round: R95, input ligand: microRNA oligo, concentration not stated
[6] = Eterna round: R95, input ligand: none
[7] = input ligand: microRNA oligo, concentration not stated

Sequence	apparent KD of MS2 coat protein (MS2 coat protein [1]) [nM]	apparent KD of MS2 coat protein (MS2 coat protein [2]) [nM]	further results
AAAAAACAUGAGGAUCACCCAUGUAAGGAUAUGCAAAAAAAAAAAAUAAAAAAAAAAAGCAGAAGGUACAUAGA [Starry Exclusion 1.7 (wbt round 1 mod)]	40.6	36.6	
AAAAAACAUGAGGAUCACCCAUGUAAGGAUAUGCUAAAAAACGCAAAAAAAGCGAAUAGCAGAAGGUACAAAAA [66%, Wbt, 29]	35.9	19.4	
AAAAAACAUGAGGAUCACCCAUGUAAGGAUAUGCUGAAAAACACGGAAAAACGUGACAGCAGAAGGUACAAAAG [Mat - Exclusion 1 - Eli mod - D93]	84	11.8	
AAAAAACAUGAGGAUCACCCAUGUCAGGAUAUCCGAAAAAAAAAAAAAAAAAAACCUUGGAGAAGGGACAUUCC [Chica Displaced 6 - Jieux - Exclusion 1]	34.4	37.2	
AAAAAACAUGAGGAUCACCCAUGUCAGGAUAUCUGUAUUCAAUCCUCGGAUUGAAUACAGAGAAGGGACAUGAA [Ex1: 603]	110	41.3	
AAAAAACAUGAGGAUCACCCAUGUGAGGAUAUACAAAACCCAUAUAAAAAGGGAAAAAGUAGAAGGCACAAAAA [wbt round 1 mod 11]	33.9	27.5	
AAAAAACAUGAGGAUCACCCAUGUGAGGAUAUCUGUAUCCAAAAGGAAGUGUAGGAUCAGAGAAGGCACUAGGA [Power strip]	83.8	40.1	
AAAAAACAUGAGGAUCACCCAUGUGAGGAUAUGAUGCGAAUAAAGAAAGAAUAAAGCAUCAGAAGGCACAAAAA [Mat - Exclusion 1 - Eli mod - D62]	49.6	36.4	
AAAAAACAUGAGGAUCACCCAUGUGAGGAUAUGCAAUAAAAAAUAAAAAUAAAACAUAGCAGAAGGCACACCAA [Amethyst 58]	31.8	26.6	
AAAAAACAUGAGGAUCACCCAUGUUAGGAUAUUCCUAAAAAAAAAAAAAAAAAAAAUGGAAGAAGGAACAAAAA [excalibur10]	30.2	23.5	
AAAAAAGCAGGAUAUACGAACAUGUCGAAAGACGUGAAGGGACAUGAGGAUCACCCAUGUAGAAGGGUUAAGAA [Mat - Exclusion 2 - JL mod - D75]	55	166	
AAAAAAGGAGGAUAUACAUGAGGAUCACCCAUGUAAAAAGGGAAAAAAAAAAAAAAAAGUAGAAGGCCUAAAAA [JR_Exc003_Sub1701]	65.1	41.7	
AAAAAAUAAGGAUAUACAUUUCGGGAAAUUUUUACAAAAAAACAUGAGGAUCACCCAUGUAGAAGGUAUAAAAA [Exclusion 2]	17.7	18.6	
AAAAACCAAGGAUAUACAUGAGGAUCACCCAUGUAAAAAAAAAAAAAGGGAAAAAAAAGUAGAAGGUGGAAAAA [Sekhemre Shedtawy Sobekemsaf II]	38.6	20.9	
AAAAACCUAGGAUAUACAUGAGGAUCACCCAUGUAAAAAAAAAAAAAGGGAAAAAAAAGUAGAAGGAGGAAAAA [Sekhemre Wadjkhaw Sobekemsaf I]	24.9	20.6	
AAAAACGGAGGAUAUACAUGAGGAUCACCCAUGUAAAAAAAAAAAAAGGGAAAAAAAAGUAGAAGGCCGAAAAA [Sekhemrekhutawy Pantjeny]	71.2	39.1	
AAAAAGAGAGGAUAUACAUGAGGAUCACCCAUGUGAAAGACGAAAAAAAGUCAAAAAAGUAGAAGGCUCAAAAA [65%, Moding Exclusion3-cac2, 15]	25.4	23.8	
AAAAAGAGAGGAUAUACAUGAGGAUCACCCAUGUGACACAAAAUAAAUAAAAUAAAGUGUAGAAGGCUCAAAAA [65%, Moding Exclusion3-cac2, 20]	78.2	23.8	

Sequence	apparent KD of MS2 coat protein (MS2 coat protein [1]) [nM]	apparent KD of MS2 coat protein (MS2 coat protein [2]) [nM]	further results
AAAAAGAGAGGAUAUACAUGAGGAUCACCCAUGUGACAUAAAAUAAAUAAAAUAAAGUGUAGAAGGCUCAAAAA [65%, Moding Exclusion3-cac2, 21]	104	41.7	
AAAAAGAGAGGAUAUGCAGGAGGUAAGGUCGAAAAAAAAAAACAUGAGGAUCACCCAUGUAGAAGGUUUAAAAA [Ecls2-VII]	23.9	23.6	
AAAAAGAUAGGAUAUACGAACAUGUCGAAAGACGUGAAGGGACAUGAGGAUCACCCAUGUAGAAGGGUUAAAAA [Mat - Exclusion 2 - JL mod - D88]	50	149	
UUAUAACAUGAGGAUCACCCAUGUCAACAAAGUCGAGGAUAUGGGCAUAGAUUAUAAGAACCAGAAGGCGAAUAUU [Mat - Same State 1 - Mod of UCT - D40] (puzzle: Same State 1)			apparent KD of MS2 coat protein (MS2 coat protein [3]; [4]): 51.8 nM; apparent KD of MS2 coat protein (MS2 coat protein [3]; [5]): 117 nM; apparent KD of MS2 coat protein (MS2 coat protein [3]; [6]): 118 nM
UUCUCAUUUACAUGAGGAUCACCCAUGUUUUUAUGUCAGAGAUAGGAUAUAGUUCUCUCGUUUUUCUAGAAGGAUCUUUUUAUU [JR_SSNG3_Sub086] (Eterna round: R96, puzzle: Same State NG 3)			apparent KD of MS2 coat protein (MS2 coat protein [3]; input ligand: FMN 200 uM): 65.9 nM; apparent KD of MS2 coat protein (MS2 coat protein [3]; [7]): 41.3 nM; apparent KD of MS2 coat protein (MS2 coat protein [3]; input ligand: none): 64.6 nM
UUCUCCUUUUUUUACAUGAGGAUCACCCAUGUUUACCCUACGUAGGAUAUCGAUGAGUGUUUGUACGAGAAGGACGUAGUAAGU [JR_SSND3_Sub058] (Eterna round: R96, puzzle: Same State NG 3)			apparent KD of MS2 coat protein (MS2 coat protein [3]; input ligand: FMN 200 uM): 37.4 nM; apparent KD of MS2 coat protein (MS2 coat protein [3]; [7]): 106 nM; apparent KD of MS2 coat protein (MS2 coat protein [3]; input ligand: none): 137 nM
UUGAAGAAUUAAGGAUAUUGAGUACAUAUGUAAAACAUGAGGAUCACCCAUGUGGGUUGCGGUAUCGAGAAGGUAAAUUACUAG [Mat - same State NG 2 - JL mod - D69] (Eterna round: R96, puzzle: Same State NG 2)			apparent KD of MS2 coat protein (MS2 coat protein [3]; input ligand: FMN 200 uM): 69.9 nM; apparent KD of MS2 coat protein (MS2 coat protein [3]; [7]): 66.2 nM; apparent KD of MS2 coat protein (MS2 coat protein [3]; input ligand: none): 65.9 nM
UUGAAUAAUUAAGGAUAUCGAGUACAUAUGUUAAACAUGAGGAUCACCCAUGUGGGUUGCGGUAUCGAGAAGGUAAAAGAAAAG [Mat - Same State NG 2 - JL mod - D60] (Eterna round: R96, puzzle: Same State NG 2)			apparent KD of MS2 coat protein (MS2 coat protein [3]; input ligand: FMN 200 uM): 32.6 nM; apparent KD of MS2 coat protein (MS2 coat protein [3]; [7]): 21.9 nM; apparent KD of MS2 coat protein (MS2 coat protein [3]; input ligand: none): 35.8 nM
UUGCUCAUGUAAGGAUAUGCAGCCGUUUCGGCUGCAGAAGGUACUAUAAUACAUGAGGAUCACCCAUGUCUCUAUUAUUUAGUG [salish99_SSNG1_r04_924] (Eterna round: R96, puzzle: Same State NG 1)			apparent KD of MS2 coat protein (MS2 coat protein [3]; input ligand: FMN 200 uM): 78.6 nM; apparent KD of MS2 coat protein (MS2 coat protein [3]; [7]): 43.8 nM; apparent KD of MS2 coat protein (MS2 coat protein [3]; input ligand: none): 59.8 nM
UUGCUCGUGUGAGGAUAUGCAGCCGUUUCGGCUGCAGAAGGUACUAUAAUACAUGAGGAUCACCCAUGUCUCUGUUGUUUAGUG [salish99_SSNG1_r04_928] (Eterna round: R96, puzzle: Same State NG 1)			apparent KD of MS2 coat protein (MS2 coat protein [3]; input ligand: FMN 200 uM): 34 nM; apparent KD of MS2 coat protein (MS2 coat protein [3]; [7]): 27.8 nM; apparent KD of MS2 coat protein (MS2 coat protein [3]; input ligand: none): 39.2 nM
UUGGUGUAGAUACAGGAUAUGUUGCUCGUAACAUGAGGAUCACCCAUGUAUCUAUGAGAUUAAAUGCAGAAGGGUGCACAUCACU [salish99_ss2_r3_088] (puzzle: Same State 2)			apparent KD of MS2 coat protein (MS2 coat protein [3]; [4]): 121 nM; apparent KD of MS2 coat protein (MS2 coat protein [3]; [5]): 54.2 nM; apparent KD of MS2 coat protein (MS2 coat protein [3]; [6]): 329 nM
UUGUUUCGUCAUUAACAUGAGGAUCACCCAUGUAUUGACCCAGAGGAUAUGCAUGUUUGAUUGUAGCAGAAGGCUGAUUGUUGU [JR_SSNG3_Sub032] (Eterna round: R96, puzzle: Same State NG 3)			apparent KD of MS2 coat protein (MS2 coat protein [3]; input ligand: FMN 200 uM): 13.7 nM; apparent KD of MS2 coat protein (MS2 coat protein [3]; [7]): 27 nM; apparent KD of MS2 coat protein (MS2 coat protein [3]; input ligand: none): 26.3 nM
UUUAGGAACGGGCAGGAUAUGUAUUAAAAUACAUGAGGAUCACCCAUGUGCGGGUAUAACACCCGACAGAAGGGCCAAUCGUUCC [Laonerce - 9] (puzzle: Same State 2)			apparent KD of MS2 coat protein (MS2 coat protein [3]; [4]): 22.7 nM; apparent KD of MS2 coat protein (MS2 coat protein [3]; [5]): 170 nM; apparent KD of MS2 coat protein (MS2 coat protein [3]; [6]): 231 nM
UUUAGUUGCGGGCAGGAUAUGUAUUAAAAUACAUGAGGAUCACCCAUGUGCGGGUAUAACACCCGGCAGAAGGGCCAAUCGCGAC [Laonerce - 3] (puzzle: Same State 2)			apparent KD of MS2 coat protein (MS2 coat protein [3]; [4]): 34.2 nM; apparent KD of MS2 coat protein (MS2 coat protein [3]; [5]): 191 nM; apparent KD of MS2 coat protein (MS2 coat protein [3]; [6]): 296 nM
UUUAUAUUCAGAGGAUAUUAAUGUUGUAUAAUAUAAGAAGGCUGUUUGUUUUGUAAAGUUAUUAUACAUGAGGAUCACCCAUGU [JR_SSNG1_Sub082] (Eterna round: R96, puzzle: Same State NG 1)			apparent KD of MS2 coat protein (MS2 coat protein [3]; [7]): 15.5 nM
UUUAUAUUCAGAGGAUAUUGAUGUUGUAUUUUACAAGAAGGCUGUUUGUUUUGUAAUGUUAUUAUACAUGAGGAUCACCCAUGU [JR_SSNG1_Sub015] (Eterna round: R96, puzzle: Same State NG 1)			apparent KD of MS2 coat protein (MS2 coat protein [3]; [7]): 16.8 nM
UUUGGGUGGCUGGAGGAUAUUCUAGUGGUUACAUGAGGAUCACCCAUGUGUCGCGCGGUACGCGAGGAGAAGGCUGGCGGCCGUU (puzzle: Same State 2)			apparent KD of MS2 coat protein (MS2 coat protein [3]; [5]): 83.5 nM
UUUGGGUGGCUGGAGGAUAUUCUUGUGGUUACAUGAGGAUCACCCAUGUGUCGCGCGGUGCGCGAGGAGAAGGCUGGCGGCCGUU (puzzle: Same State 2)			apparent KD of MS2 coat protein (MS2 coat protein [3]; [5]): 186 nM
